Substitutions are numbered along the chain they refer to.

The target of assay [1] is Human PD-1 (monovalent antigen) (human, UniProt Q15116 25-167, limits assumed). Briefly: ForteBio BLI, IgG on AHQ sensor, monovalent antigen in solution. On the technique in general: In BLI a coated tip is dipped into the sample, and binding shifts an interference pattern.
Procedure: (§1) The affinity of the PD-1 antibodies was determined by measuring their KD by ForteBio or MSD-SET. […] Briefly, ForteBio affinity measurements were performed by loading IgGs on-line onto AHQ sensors. Sensors were equilibrated off-line in assay buffer for 30 min and then monitored on-line for 60 seconds for baseline establishment. Sensors with loaded IgGs were exposed to 100 nM antigen for 5 minutes, afterwards they were transferred to assay buffer for 5 min for off-rate measurement. Kinetics were analyzed using the 1:1 binding model.
The target of assay [2] is T1, Mouse PD-1 (monovalent antigen) (mouse, UniProt Q02242 25-167, limits assumed).
T1 sequence (looked up): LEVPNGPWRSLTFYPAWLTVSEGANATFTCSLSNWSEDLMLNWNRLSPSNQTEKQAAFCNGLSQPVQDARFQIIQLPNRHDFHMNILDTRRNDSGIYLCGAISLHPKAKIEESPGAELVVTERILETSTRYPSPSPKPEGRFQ
Described as above.
Procedure: as §1

For assay [3], the target named is T2, Human PD-1 extracellular domain (ECD)-Fc-His6 (human).
T2 construct: also called Human WT PD-1 ECD-Fc fusion
In words: BLI (ForteBio OctetRED96), PD-1 ECD-Fc-His6 panel; Y = affinity within ~5-fold of WT human PD-1.
Procedure: (§2) All protein interactions were assessed on a ForteBio OctetRED96 instrument. Proteins were diluted in kinetics buffer formulation (PBS +0.1% BSA, 0.02% Tween20, 0.05% sodium azide) with a sample volume was 220 μl/well. Ligand concentrations were normalized at 10 μg/ml and analyte concentrations at 100 nM. The blocking reagent was employed at a concentration of 250 μg/ml. Sensor equilibration time was set for 60 sec, and sample loading time established at 300 sec. Human Fc blocking time was set for 300 sec. Analysis of association time was set for 300 sec and dissociation time for 600 sec.

Assay [4] has as its target Human PD-1 D85G ECD-Fc-His6 (human). The assay is described as above.
Procedure: as §2
For assay [5], the target named is Human PD-1 R86L ECD-Fc-His6 (human). The assay is described as above.
Procedure: as §2
The target in assay [6] is Human PD-1 D85G/R86L ECD-Fc-His6 (human). The description is as above.
Procedure: as §2
The target in assay [7] is T3, Human PD-1 N33-Q167 ECD-Fc-His6 (human).
T3 construct: also called N-terminal truncated variant N33-Q167
The description is as above.
Procedure: as §2

Assay [8] has as its target Human PD-1 K78A ECD-Fc-His6 (human). Described as above.
Procedure: as §2
A further assay deals with T4, Mouse PD-1 ECD-Fc-His6 (mouse).
T4 construct: also called Mouse WT PD-1 ECD-Fc fusion
The description is as above.

Assay [9] has as its target Rat P129H PD-1 ECD-Fc-His6 (rat). The assay is described as above.
Procedure: as §2
Assay [10] deals with T5, Cynomolgus monkey PD-1 ECD-Fc-His6 (cynomolgus monkey).
T5 construct: also called Cyno WT PD-1 ECD-Fc fusion
The assay is described as above.
Procedure: as §2

The target in assay [11] is Human PD-1 I126A ECD-Fc-His6 (human). In words: BLI (ForteBio OctetRED96), PD-1 ECD-Fc-His6 panel; Reduced = affinity reduced >10-fold and <100-fold vs WT human PD-1.
Procedure: as §2
The target of assay [12] is Human PD-1 L128A ECD-Fc-His6 (human). The assay is described as above.
Chain of Human PD-1 L128A ECD-Fc-His6 (human) (chain, as listed by the source L128A L128A limits assumed): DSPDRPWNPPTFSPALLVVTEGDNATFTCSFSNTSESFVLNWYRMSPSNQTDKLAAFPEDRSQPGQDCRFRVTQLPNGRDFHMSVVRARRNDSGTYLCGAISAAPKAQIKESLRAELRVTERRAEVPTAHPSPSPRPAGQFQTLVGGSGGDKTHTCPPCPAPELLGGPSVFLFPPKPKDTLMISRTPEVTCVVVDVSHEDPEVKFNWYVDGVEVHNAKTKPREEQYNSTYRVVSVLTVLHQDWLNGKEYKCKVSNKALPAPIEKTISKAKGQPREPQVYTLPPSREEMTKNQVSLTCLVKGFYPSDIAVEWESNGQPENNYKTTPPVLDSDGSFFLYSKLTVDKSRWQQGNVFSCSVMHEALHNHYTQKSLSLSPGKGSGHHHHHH
Procedure: as §2

Chain of Human PD-1 (monovalent antigen) (Q15116 25-167 limits assumed): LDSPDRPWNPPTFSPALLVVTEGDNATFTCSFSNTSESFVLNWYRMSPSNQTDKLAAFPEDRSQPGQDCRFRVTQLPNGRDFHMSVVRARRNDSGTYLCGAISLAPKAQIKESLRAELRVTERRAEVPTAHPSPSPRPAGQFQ
Chain of Human PD-1 K78A ECD-Fc-His6 (human) (chain, as listed by the source K78A K78A limits assumed): as the sequence (chain, as listed by the source L128A L128A limits assumed) above, with K53A, A103L counted along it
T3 sequence (chain, as listed by the source limits assumed): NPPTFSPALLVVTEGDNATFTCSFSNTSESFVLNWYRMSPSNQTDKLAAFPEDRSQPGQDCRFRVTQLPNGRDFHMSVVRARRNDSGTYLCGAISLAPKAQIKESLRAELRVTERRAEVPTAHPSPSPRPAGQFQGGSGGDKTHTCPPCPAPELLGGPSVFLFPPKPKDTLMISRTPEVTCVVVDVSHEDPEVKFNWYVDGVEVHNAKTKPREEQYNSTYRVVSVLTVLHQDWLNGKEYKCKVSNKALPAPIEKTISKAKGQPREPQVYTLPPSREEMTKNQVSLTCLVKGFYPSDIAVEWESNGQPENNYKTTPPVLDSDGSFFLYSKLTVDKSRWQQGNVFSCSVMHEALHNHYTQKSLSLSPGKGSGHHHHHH
Chain of Human PD-1 D85G/R86L ECD-Fc-His6 (human) (chain, as listed by the source D85G R86L D85G R86L limits assumed): as the sequence (chain, as listed by the source L128A L128A limits assumed) above, with D60G, R61L, A103L counted along it
Chain of Human PD-1 R86L ECD-Fc-His6 (human) (chain, as listed by the source R86L R86L limits assumed): as the sequence (chain, as listed by the source L128A L128A limits assumed) above, with R61L, A103L counted along it
T2 sequence (chain, as listed by the source limits assumed): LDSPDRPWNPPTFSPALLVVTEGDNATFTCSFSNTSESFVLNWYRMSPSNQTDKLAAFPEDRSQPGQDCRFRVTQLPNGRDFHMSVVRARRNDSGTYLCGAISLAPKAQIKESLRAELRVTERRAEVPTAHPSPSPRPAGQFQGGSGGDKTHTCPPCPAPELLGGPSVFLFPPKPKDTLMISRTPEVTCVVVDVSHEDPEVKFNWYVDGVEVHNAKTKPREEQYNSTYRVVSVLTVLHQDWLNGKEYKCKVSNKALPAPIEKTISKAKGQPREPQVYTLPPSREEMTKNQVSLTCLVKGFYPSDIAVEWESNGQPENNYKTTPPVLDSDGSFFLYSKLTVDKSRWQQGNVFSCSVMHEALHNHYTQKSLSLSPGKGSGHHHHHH
Chain of Rat P129H PD-1 ECD-Fc-His6 (rat) (chain, as listed by the source P129H P129H limits assumed): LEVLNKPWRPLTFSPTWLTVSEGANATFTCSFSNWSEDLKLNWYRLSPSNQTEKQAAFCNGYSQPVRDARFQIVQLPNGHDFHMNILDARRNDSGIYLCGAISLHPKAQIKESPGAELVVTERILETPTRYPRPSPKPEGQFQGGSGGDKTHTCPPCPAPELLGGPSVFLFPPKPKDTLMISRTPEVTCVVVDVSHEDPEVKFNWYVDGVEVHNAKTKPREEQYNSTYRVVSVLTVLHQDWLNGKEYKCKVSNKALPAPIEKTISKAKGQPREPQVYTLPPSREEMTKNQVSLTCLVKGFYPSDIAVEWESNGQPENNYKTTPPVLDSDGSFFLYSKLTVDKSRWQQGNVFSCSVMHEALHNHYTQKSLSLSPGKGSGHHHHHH
Chain of Human PD-1 D85G ECD-Fc-His6 (human) (chain, as listed by the source D85G D85G limits assumed): as the sequence (chain, as listed by the source L128A L128A limits assumed) above, with D60G, A103L counted along it
Chain of Human PD-1 I126A ECD-Fc-His6 (human) (chain, as listed by the source I126A I126A limits assumed): as the sequence (chain, as listed by the source L128A L128A limits assumed) above, with I101A, A103L counted along it
T5 sequence (chain, as listed by the source limits assumed): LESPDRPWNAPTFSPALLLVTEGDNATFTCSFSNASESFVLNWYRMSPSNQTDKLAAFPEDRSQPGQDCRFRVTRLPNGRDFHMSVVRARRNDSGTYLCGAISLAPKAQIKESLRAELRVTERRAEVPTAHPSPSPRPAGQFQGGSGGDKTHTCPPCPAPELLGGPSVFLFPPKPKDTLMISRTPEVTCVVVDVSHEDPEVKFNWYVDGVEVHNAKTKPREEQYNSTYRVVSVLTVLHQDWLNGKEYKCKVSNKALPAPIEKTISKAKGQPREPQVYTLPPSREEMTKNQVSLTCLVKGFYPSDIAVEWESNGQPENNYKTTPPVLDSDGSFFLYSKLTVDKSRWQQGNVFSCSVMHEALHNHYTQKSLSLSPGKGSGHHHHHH
Procedure for Mouse PD-1 ECD-Fc-His6: as §2

B1: antibody 13406 (antibody, V domains shown)
VH: QVQLVQSGAEVKKPGASVKVSCKASGYTFDQYYMHWVRQAPGQGLEWMGIINPSGGSTAYAQKFQGRVTMTRDTSTSTVYMELSSLRSEDTAVYYCARGGTYYDYTYWGQGTLVTVSS
VL: DIQMTQSPSTLSASVGDRVTITCRASQSISSWLAWYQQKPGKAPKLLIYEASSLESGVPSRFSGSGSGTEFTLTISSLQPDDFATYYCQQYNSFPPTFGGGTKVEIK
In the case of B1, the figures for the Kd in [1] and in assay [2] were 3.2 nM and 3.5 nM, respectively.

B2: 13407 Fab (Fab, V domains shown)
VH: B1 VH with D30P, Q31S, S54E
VL: B1 VL
On to B2, for which the binding result in assay [3], in assay [4], in assay [5], in assay [6], in assay [7] and in assay [8] was “binds” in each case. For the same molecule, the binding result (with Mouse PD-1 ECD-Fc-His6; in [9]; in assay [10]; in assay [11]; in assay [12]) was “binds” in each case.

B3: antibody 13405 (antibody, V domains shown)
VH: QVQLVQSGAEVKKPGASVKVSCKASGYTFASYYMGWVRQAPGQGLEWMGIINPAGGSTAYAQKFQGRVTMTRDTSTSTVYMELSSLRSEDTAVYYCARHEYGMDVWGQGTTVTVSS
VL: B1 VL
Consider B3, for which the Kd worked out at 73 nM in [1] and 7.2 nM in [2].

B4: antibody 13408 (antibody, V domains shown)
VH: B1 VH with D30S, Q31D, S57V
VL: B1 VL
B4: the Kd is 1.2 nM in assay [1] and 5.3 nM in [2].

B5: antibody 13407 (antibody, V domains shown)
VH: B1 VH with D30P, Q31S, S54E
VL: B1 VL
Take B5: the Kd in [1] was 3.9 nM; in assay [2], 3.2 nM.

B6: antibody 12228 (antibody, V domains shown)
VH: B1 VH with D30T, Q31S, A59S
VL: B1 VL
On to B6, for which the Kd in assay [1] amounted to 49 nM; in assay [2] it was 6.3 nM.

For orientation: Kd means the equilibrium constant for the complex coming apart.

(Values after US20180118829A1 (JOUNCE THERAPEUTICS, published 2018).)
